Measured values as given in paper PMC3627919.

Assays:
[1] = biological target: Nfluc416-WASP (human) (UniProt P42768); experiment: split reporter (BiFC, NanoBiT); bimolecular luminescence complementation (split firefly luciferase) in living HEK 293 cells, 24 h after transient cotransfection of the pair (50 ng/well) with pRL-tk; D-luciferin 150 ug/ml; IVIS CCD camera; ratio FL at 600 nm to RL at 500 nm; wild-type pairs also with co-expressed GEF or GAP catalytic domains
[2] = biological target: Nfluc416-PAK (UniProt Q13153); experiment: split-luciferase complementation (BiLC) optical imaging in transiently cotransfected 293 cells; settings: parent: est. 4.6; read off a plot
[3] = biological target: Nfluc416-PKN (human) (UniProt Q16512); experiment: split reporter (BiFC, NanoBiT); bimolecular luminescence complementation (split firefly luciferase) in living HEK 293 cells, 24 h after transient cotransfection of the pair (50 ng/well) with pRL-tk; D-luciferin 150 ug/ml; IVIS CCD camera; ratio FL at 600 nm to RL at 500 nm; wild-type pairs also with co-expressed GEF or GAP catalytic domains
Sequence of Nfluc416-PKN (human) (Q16512 13-112): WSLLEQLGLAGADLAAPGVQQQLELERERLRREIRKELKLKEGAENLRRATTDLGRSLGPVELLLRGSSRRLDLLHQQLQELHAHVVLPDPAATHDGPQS

Sequence of Nfluc416-WASP (human) (P42768 220-288): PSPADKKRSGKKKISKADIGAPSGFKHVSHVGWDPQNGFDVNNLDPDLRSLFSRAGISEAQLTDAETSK

## CDC42-Cfluc398 (CDC42 G12V) (from UniProt P60953 1-176; P60953 171-191) (natural protein)
[1]
  reconstituted luminescence (FL/RL), fold over CDC42 F37A: 12.7 fold
  reconstituted luminescence (FL/RL), fold over CDC42 T17N: 6.8 fold
  reconstituted luminescence (FL/RL), fold over CDC42 WT: 2.9 fold

## Cfluc398-RacI(WT) (from UniProt P63000) F37A
[2]
  response: 1.4 FL/RL

## Cfluc398-RacI(WT) (from UniProt P63000) T17N
[2]
  response: 2.1 FL/RL

## Cfluc398-RhoA(G14V) (from UniProt P61586 1-193) (natural protein)
[3]
  luminescence signal, fold of the active mutant over the wild type: 5.15 fold
